Test results published in article PMC8079763 (2021).

Legend:
[1] = biological target: GST tagged ecto-basigin (recombinant mouse basigin) (mouse (C57BL/6J)) (UniProt P18572); assay: SPR; Biacore X100; recombinant mouse basigin (GST tagged) immobilised on CM5 chip by amine coupling; PyEBL regions as analytes; HBS-EP+ (10 mM HEPES pH 7.4, 150 mM NaCl, 3 mM EDTA, 0.05% P20); single-cycle kinetics, 1:1 binding model
[2] = biological target: T1, GST tagged ecto-basigin (recombinant mouse basigin) (mouse (C57BL/6J), UniProt P18572 22-325); assay: SPR
T1 chain: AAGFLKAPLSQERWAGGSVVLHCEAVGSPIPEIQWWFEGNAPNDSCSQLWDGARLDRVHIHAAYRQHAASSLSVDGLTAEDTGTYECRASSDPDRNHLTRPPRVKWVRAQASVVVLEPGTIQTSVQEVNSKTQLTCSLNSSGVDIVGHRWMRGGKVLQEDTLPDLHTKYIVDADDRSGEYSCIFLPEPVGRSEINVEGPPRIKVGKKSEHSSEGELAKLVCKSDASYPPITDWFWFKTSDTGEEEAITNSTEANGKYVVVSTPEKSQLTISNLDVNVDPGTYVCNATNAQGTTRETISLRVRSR

| Molecule | Kd [1] [nM] | koff [2] [s⁻¹] |
| --- | --- | --- |
| recombinant PyEBL ectodomain spanning region 1 to region 6 (PyEBL R1-6; amino acids V28-N788) (domain or fragment) | 33 |  |
| recombinant PyEBL R1-2 (amino acid V28-G437) (domain or fragment) | 16 |  |
| recombinant PyEBL C351Y (domain or fragment) | 26 |  |
| recombinant PyEBL R2, the N-terminal Cys-rich Duffy binding-like region (E113-G437) (domain or fragment) | 34 |  |
| recombinant PyEBL R2, the N-terminal Cys-rich Duffy binding-like region (E113-G437) (domain or fragment) EKNGNVNYKDYFDKYQVNECKEKNKNEIHAWICDNEKQNCIPSRRINLCTKRLEIIPDTIKIPDNKTKELLMDYFKQFIYKDAAREGELLLNKYDDKNNNEYCNDMINSFGDYKNIVEGTGLKNVANESLLELKIQNIFGTDDNAKRNRKTWWKNHEHIVWKAMVLGKNFNETSNYKNVCTNYKLEDYHSQIERWTREWIQEFSVQYFKEANKINNKCTKKSNISTESICINNECKNACNTYEAWISVNKSKWDTLLQRFSQFNKSYFSEETCRDKAYNSLMIEFKEAYEANFENVINLDDDHYTGLCVCSSVKPSNTPINNNLG |  | 0.00104 |
| recombinant PyEBL ectodomain spanning region 1 to region 6 (PyEBL R1-6; amino acids V28-N788) (domain or fragment) VNLLKRTYESFQSFPLKNNSGNRILYELKESLYNIENGETWGDLVSKDNEIFGGKDHILSENYTSDSVNSKKESNFLETGKISLVEKNGNVNYKDYFDKYQVNECKEKNKNEIHAWICDNEKQNCIPSRRINLCTKRLEIIPDTIKIPDNKTKELLMDYFKQFIYKDAAREGELLLNKYDDKNNNEYCNDMINSFGDYKNIVEGTGLKNVANESLLELKIQNIFGTDDNAKRNRKTWWKNHEHIVWKAMVLGKNFNETSNYKNVCTNYKLEDYHSQIERWTREWIQEFSVQYFKEANKINNKCTKKSNISTESICINNECKNACNTYEAWISVNKSKWDTLLQRFSQFNKSYFSEETCRDKAYNSLMIEFKEAYEANFENVINLDDDHYTGLCVCSSVKPSNTPINNNLGYKQTLETQNPTDASQNTLFPPFSTGTETDLFKEDDDDNGGFDLLSYNNADAQNLRNSTPTDQVGVNNEQNKLNQNAESNNKYELQIMGNHANSDNTYHNIIIPSQENNIYTSTPESVTINPTSTSNTNENQTLTPNSTLTPTLTSNSNPTQIPTQPQPQFPIPPQPQFPIPPETQFPIPPETQIPTPTLNPNATNKGVKEHHFNTNGIENGNTMKDQMNIPPIKFNIDPKHDNTINGGFSRINNDNDSENANKLGIDEYEHRDIKKSRENIIMLANENVCNGNPGLKYCESINNKYFHGTCSKSQTQNLCCSISNYCIKFFNINSKKYYDCMNEEFMAPDYNCFQKESYSN |  | 0.00106 |
| recombinant PyEBL R1-2 (amino acid V28-G437) (domain or fragment) VNLLKRTYESFQSFPLKNNSGNRILYELKESLYNIENGETWGDLVSKDNEIFGGKDHILSENYTSDSVNSKKESNFLETGKISLVEKNGNVNYKDYFDKYQVNECKEKNKNEIHAWICDNEKQNCIPSRRINLCTKRLEIIPDTIKIPDNKTKELLMDYFKQFIYKDAAREGELLLNKYDDKNNNEYCNDMINSFGDYKNIVEGTGLKNVANESLLELKIQNIFGTDDNAKRNRKTWWKNHEHIVWKAMVLGKNFNETSNYKNVCTNYKLEDYHSQIERWTREWIQEFSVQYFKEANKINNKCTKKSNISTESICINNECKNACNTYEAWISVNKSKWDTLLQRFSQFNKSYFSEETCRDKAYNSLMIEFKEAYEANFENVINLDDDHYTGLCVCSSVKPSNTPINNNLG |  | 0.00713 |
